Measurements from publication PMC4452343, “Monitoring β-arrestin recruitment via β-lactamase enzyme fragment complementation: purification of peptide E as a low-affinity ligand for mammalian bombesin receptors” (PLoS ONE, 2015).

Target: gastrin-releasing peptide receptor (human) (UniProt P30550)
Sequence (P30550 whole entry): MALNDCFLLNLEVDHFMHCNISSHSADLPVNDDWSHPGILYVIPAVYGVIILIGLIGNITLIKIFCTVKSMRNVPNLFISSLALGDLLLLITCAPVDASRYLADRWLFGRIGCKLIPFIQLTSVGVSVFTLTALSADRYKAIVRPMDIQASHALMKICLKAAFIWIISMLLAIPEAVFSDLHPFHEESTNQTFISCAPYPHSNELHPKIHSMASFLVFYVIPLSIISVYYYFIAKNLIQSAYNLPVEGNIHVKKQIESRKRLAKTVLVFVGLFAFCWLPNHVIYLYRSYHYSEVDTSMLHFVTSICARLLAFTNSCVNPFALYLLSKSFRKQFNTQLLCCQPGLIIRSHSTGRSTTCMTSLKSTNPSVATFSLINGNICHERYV

VPLPAGGGTVLTKMYPRGNHWAVGHLM [gastrin-releasing peptide] was tested, and the EC50 of NFAT-luciferase reporter activation in CHO cells expressing hGRPR was 0.12 nM.
